Data reported in publication PMC9482650, “Quantitative fragmentomics allow affinity mapping of interactomes” (Nature Communications, 2022).

T1: MPP7, Q5T2T1
T1 sequence (Q5T2T1 134-230, limits assumed, looked up): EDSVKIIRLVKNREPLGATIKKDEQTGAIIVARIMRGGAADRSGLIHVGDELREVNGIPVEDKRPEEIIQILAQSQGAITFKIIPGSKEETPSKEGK

T2: HTRA3, P83110
T2 sequence (P83110 354-453, limits assumed, looked up): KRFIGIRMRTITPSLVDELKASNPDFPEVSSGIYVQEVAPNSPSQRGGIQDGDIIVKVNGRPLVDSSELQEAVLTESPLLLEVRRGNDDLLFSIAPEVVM

T3: MPDZ_10, O75970
T3 sequence (O75970 1624-1722, limits assumed, looked up): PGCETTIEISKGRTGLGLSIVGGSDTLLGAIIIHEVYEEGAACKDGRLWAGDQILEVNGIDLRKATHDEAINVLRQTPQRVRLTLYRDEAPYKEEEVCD

T4: PDZD7_3, Q9H5P4
T4 sequence (Q9H5P4 857-944, limits assumed, looked up): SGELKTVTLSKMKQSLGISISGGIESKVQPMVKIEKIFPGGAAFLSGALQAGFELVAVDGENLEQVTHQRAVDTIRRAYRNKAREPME

T5: SYNJ2BP, P57105
T5 sequence (P57105 8-110, limits assumed, looked up): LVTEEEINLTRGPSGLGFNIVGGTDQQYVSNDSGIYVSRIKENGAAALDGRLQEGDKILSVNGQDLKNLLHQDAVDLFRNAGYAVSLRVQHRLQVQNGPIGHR

T6: GRIP1_7, Q9Y3R0
T6 sequence (Q9Y3R0 999-1096, limits assumed, looked up): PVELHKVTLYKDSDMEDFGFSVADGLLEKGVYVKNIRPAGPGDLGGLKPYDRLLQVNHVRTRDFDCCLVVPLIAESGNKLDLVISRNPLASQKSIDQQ

T7: APBA1_1, Q02410
T7 sequence (Q02410 651-752, limits assumed, looked up): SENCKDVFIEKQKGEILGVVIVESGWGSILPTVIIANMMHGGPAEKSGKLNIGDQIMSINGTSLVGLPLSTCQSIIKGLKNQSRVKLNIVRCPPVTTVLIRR

T8: TX1BP3, O14907
T8 sequence (O14907 10-122, limits assumed, looked up): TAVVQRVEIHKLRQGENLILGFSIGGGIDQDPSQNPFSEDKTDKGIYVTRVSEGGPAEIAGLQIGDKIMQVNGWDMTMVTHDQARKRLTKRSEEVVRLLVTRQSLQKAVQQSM

T9: APBA1_2, Q02410
T9 sequence (Q02410 742-832, limits assumed, looked up): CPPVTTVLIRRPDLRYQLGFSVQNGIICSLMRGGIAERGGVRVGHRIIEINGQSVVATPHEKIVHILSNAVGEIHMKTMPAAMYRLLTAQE

T10: GRIP1_3, Q9Y3R0
T10 sequence (Q9Y3R0 247-346, limits assumed, looked up): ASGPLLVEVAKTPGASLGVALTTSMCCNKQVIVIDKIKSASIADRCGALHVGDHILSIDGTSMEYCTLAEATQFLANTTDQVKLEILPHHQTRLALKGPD

T11: LNX2_3, Q8N448
T11 sequence (Q8N448 463-564, limits assumed, looked up): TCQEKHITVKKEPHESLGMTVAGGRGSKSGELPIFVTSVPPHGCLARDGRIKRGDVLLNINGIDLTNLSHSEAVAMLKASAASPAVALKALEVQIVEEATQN

T12: SHANK1, Q9Y566
T12 sequence (Q9Y566 658-767, limits assumed, looked up): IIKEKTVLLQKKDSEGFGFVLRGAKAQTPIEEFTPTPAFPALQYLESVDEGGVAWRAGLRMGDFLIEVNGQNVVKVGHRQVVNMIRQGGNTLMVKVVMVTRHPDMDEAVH

T13: SNTB1, Q13884
T13 sequence (Q13884 107-205, limits assumed, looked up): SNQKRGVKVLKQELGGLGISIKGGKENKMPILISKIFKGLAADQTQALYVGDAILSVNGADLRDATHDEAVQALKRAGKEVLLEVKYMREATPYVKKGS


molecular target: Inadl_1, Q8NI35; assay: holdup assay; set-up: key: below the threshold = too weak to quantify, mostly under pKd 3.1 to 4; conditions: plain residues with an end cap or a label only (N-terminal biotin on a linker: ado-ado)
Sequence (Q8NI35 113-229): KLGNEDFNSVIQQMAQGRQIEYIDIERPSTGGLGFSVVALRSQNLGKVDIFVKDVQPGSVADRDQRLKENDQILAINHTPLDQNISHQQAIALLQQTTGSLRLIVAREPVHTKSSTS

Row | Binder | pKd
1 | VRPGVKESLV [SCN4A, P35499] | below the threshold
2 | RDFDYIADWC [PKN2, Q16513] | below the threshold

molecular target: T1, MPP7, Q5T2T1; assay: holdup assay; set-up: key: below the threshold = too weak to quantify, mostly under pKd 3.1 to 4; conditions: plain residues with an end cap or a label only (N-terminal biotin on a linker: ado-ado)

Row | Binder | pKd
3 | VRPGVKESLV [SCN4A, P35499] | below the threshold
4 | RDFDYIADWC [PKN2, Q16513] | below the threshold

molecular target: MAST1, Q9Y2H9; assay: holdup assay; set-up: key: below the threshold = too weak to quantify, mostly under pKd 3.1 to 4; conditions: plain residues with an end cap or a label only (N-terminal biotin on a linker: ado-ado)
Sequence (Q9Y2H9 962-1065): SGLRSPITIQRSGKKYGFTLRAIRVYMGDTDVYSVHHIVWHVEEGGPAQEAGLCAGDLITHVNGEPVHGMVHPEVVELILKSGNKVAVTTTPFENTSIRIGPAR

Row | Binder | pKd
5 | VRPGVKESLV [SCN4A, P35499] | 4.19
6 | RDFDYIADWC [PKN2, Q16513] | 3.8

molecular target: T2, HTRA3, P83110; assay: holdup assay; set-up: key: below the threshold = too weak to quantify, mostly under pKd 3.1 to 4; conditions: plain residues with an end cap or a label only (N-terminal biotin on a linker: ado-ado)

Row | Binder | pKd
7 | VRPGVKESLV [SCN4A, P35499] | below the threshold
8 | RDFDYIADWC [PKN2, Q16513] | 5.86

molecular target: T3, MPDZ_10, O75970; assay: holdup assay; set-up: key: below the threshold = too weak to quantify, mostly under pKd 3.1 to 4; conditions: plain residues with an end cap or a label only (N-terminal biotin on a linker: ado-ado)

Row | Binder | pKd
9 | VRPGVKESLV [SCN4A, P35499] | below the threshold
10 | RDFDYIADWC [PKN2, Q16513] | 3.87

molecular target: T4, PDZD7_3, Q9H5P4; assay: holdup assay; set-up: key: below the threshold = too weak to quantify, mostly under pKd 3.1 to 4; conditions: plain residues with an end cap or a label only (N-terminal biotin on a linker: ado-ado)

Row | Binder | pKd
11 | VRPGVKESLV [SCN4A, P35499] | 5.05
12 | RDFDYIADWC [PKN2, Q16513] | below the threshold

molecular target: MAGI3_2, Q5TCQ9; assay: holdup assay; set-up: key: below the threshold = too weak to quantify, mostly under pKd 3.1 to 4; conditions: plain residues with an end cap or a label only (N-terminal biotin on a linker: ado-ado)
Sequence (Q5TCQ9 398-503): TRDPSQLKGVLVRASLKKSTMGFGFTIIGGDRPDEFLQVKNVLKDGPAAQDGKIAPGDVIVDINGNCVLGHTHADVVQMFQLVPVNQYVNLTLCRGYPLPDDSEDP

Row | Binder | pKd
13 | VRPGVKESLV [SCN4A, P35499] | 5.52
14 | RDFDYIADWC [PKN2, Q16513] | below the threshold

molecular target: T5, SYNJ2BP, P57105; assay: holdup assay; set-up: key: below the threshold = too weak to quantify, mostly under pKd 3.1 to 4; conditions: plain residues with an end cap or a label only (N-terminal biotin on a linker: ado-ado)

Row | Binder | pKd
15 | VRPGVKESLV [SCN4A, P35499] | 5.09
16 | RDFDYIADWC [PKN2, Q16513] | 3.73

molecular target: T6, GRIP1_7, Q9Y3R0; assay: holdup assay; set-up: key: below the threshold = too weak to quantify, mostly under pKd 3.1 to 4; conditions: plain residues with an end cap or a label only (N-terminal biotin on a linker: ado-ado)

Row | Binder | pKd
17 | VRPGVKESLV [SCN4A, P35499] | below the threshold
18 | RDFDYIADWC [PKN2, Q16513] | below the threshold

molecular target: GRID2IP_1, A4D2P6; assay: holdup assay; set-up: key: below the threshold = too weak to quantify, mostly under pKd 3.1 to 4; conditions: plain residues with an end cap or a label only (N-terminal biotin on a linker: ado-ado)
Sequence (A4D2P6 1-87): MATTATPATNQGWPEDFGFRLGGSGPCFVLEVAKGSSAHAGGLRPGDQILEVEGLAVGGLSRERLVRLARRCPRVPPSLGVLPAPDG

Row | Binder | pKd
19 | VRPGVKESLV [SCN4A, P35499] | below the threshold
20 | RDFDYIADWC [PKN2, Q16513] | below the threshold

molecular target: T7, APBA1_1, Q02410; assay: holdup assay; set-up: key: below the threshold = too weak to quantify, mostly under pKd 3.1 to 4; conditions: plain residues with an end cap or a label only (N-terminal biotin on a linker: ado-ado)

Row | Binder | pKd
21 | VRPGVKESLV [SCN4A, P35499] | below the threshold
22 | RDFDYIADWC [PKN2, Q16513] | 3.67

molecular target: T8, TX1BP3, O14907; assay: holdup assay; set-up: key: below the threshold = too weak to quantify, mostly under pKd 3.1 to 4; conditions: plain residues with an end cap or a label only (N-terminal biotin on a linker: ado-ado)

Row | Binder | pKd
23 | VRPGVKESLV [SCN4A, P35499] | 4.73
24 | RDFDYIADWC [PKN2, Q16513] | below the threshold

molecular target: T9, APBA1_2, Q02410; assay: holdup assay; set-up: key: below the threshold = too weak to quantify, mostly under pKd 3.1 to 4; conditions: plain residues with an end cap or a label only (N-terminal biotin on a linker: ado-ado)

Row | Binder | pKd
25 | VRPGVKESLV [SCN4A, P35499] | below the threshold
26 | RDFDYIADWC [PKN2, Q16513] | 3.82

molecular target: NHERF4_4, Q86UT5; assay: holdup assay; set-up: key: below the threshold = too weak to quantify, mostly under pKd 3.1 to 4; conditions: plain residues with an end cap or a label only (N-terminal biotin on a linker: ado-ado)
Sequence (Q86UT5 464-550): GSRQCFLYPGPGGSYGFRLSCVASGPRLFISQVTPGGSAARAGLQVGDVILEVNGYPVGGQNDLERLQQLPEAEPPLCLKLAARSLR

Row | Binder | pKd
27 | VRPGVKESLV [SCN4A, P35499] | 3.96
28 | RDFDYIADWC [PKN2, Q16513] | below the threshold

molecular target: T10, GRIP1_3, Q9Y3R0; assay: holdup assay; set-up: key: below the threshold = too weak to quantify, mostly under pKd 3.1 to 4; conditions: plain residues with an end cap or a label only (N-terminal biotin on a linker: ado-ado)

Row | Binder | pKd
29 | VRPGVKESLV [SCN4A, P35499] | below the threshold
30 | RDFDYIADWC [PKN2, Q16513] | below the threshold

molecular target: DLG2_2, Q15700; assay: holdup assay; set-up: key: below the threshold = too weak to quantify, mostly under pKd 3.1 to 4; conditions: plain residues with an end cap or a label only (N-terminal biotin on a linker: ado-ado)
Sequence (Q15700 189-283): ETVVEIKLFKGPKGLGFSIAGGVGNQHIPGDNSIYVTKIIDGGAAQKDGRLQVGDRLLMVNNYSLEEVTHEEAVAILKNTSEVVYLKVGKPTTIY

Row | Binder | pKd
31 | VRPGVKESLV [SCN4A, P35499] | 5.23
32 | RDFDYIADWC [PKN2, Q16513] | below the threshold

molecular target: T11, LNX2_3, Q8N448; assay: holdup assay; set-up: key: below the threshold = too weak to quantify, mostly under pKd 3.1 to 4; conditions: plain residues with an end cap or a label only (N-terminal biotin on a linker: ado-ado)

Row | Binder | pKd
33 | VRPGVKESLV [SCN4A, P35499] | below the threshold
34 | RDFDYIADWC [PKN2, Q16513] | below the threshold

molecular target: T12, SHANK1, Q9Y566; assay: holdup assay; set-up: key: below the threshold = too weak to quantify, mostly under pKd 3.1 to 4; conditions: plain residues with an end cap or a label only (N-terminal biotin on a linker: ado-ado)

Row | Binder | pKd
35 | VRPGVKESLV [SCN4A, P35499] | below the threshold
36 | RDFDYIADWC [PKN2, Q16513] | below the threshold

molecular target: PARD3_3, Q8TEW0; assay: holdup assay; set-up: key: below the threshold = too weak to quantify, mostly under pKd 3.1 to 4; conditions: plain residues with an end cap or a label only (N-terminal biotin on a linker: ado-ado)
Sequence (Q8TEW0 582-685): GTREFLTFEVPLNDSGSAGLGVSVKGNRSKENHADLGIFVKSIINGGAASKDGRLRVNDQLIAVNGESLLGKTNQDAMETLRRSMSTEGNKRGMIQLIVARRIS

Row | Binder | pKd
37 | VRPGVKESLV [SCN4A, P35499] | below the threshold
38 | RDFDYIADWC [PKN2, Q16513] | 3.76

molecular target: GRID2IP_2, A4D2P6; assay: holdup assay; set-up: key: below the threshold = too weak to quantify, mostly under pKd 3.1 to 4; conditions: plain residues with an end cap or a label only (N-terminal biotin on a linker: ado-ado)
Sequence (A4D2P6 272-370): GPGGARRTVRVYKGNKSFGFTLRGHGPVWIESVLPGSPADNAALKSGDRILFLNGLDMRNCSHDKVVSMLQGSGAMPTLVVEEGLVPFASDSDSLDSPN

Row | Binder | pKd
39 | VRPGVKESLV [SCN4A, P35499] | 3.64
40 | RDFDYIADWC [PKN2, Q16513] | below the threshold

molecular target: GIPC2, Q8TF65; assay: holdup assay; set-up: key: below the threshold = too weak to quantify, mostly under pKd 3.1 to 4; conditions: plain residues with an end cap or a label only (N-terminal biotin on a linker: ado-ado)
Sequence (Q8TF65 112-203): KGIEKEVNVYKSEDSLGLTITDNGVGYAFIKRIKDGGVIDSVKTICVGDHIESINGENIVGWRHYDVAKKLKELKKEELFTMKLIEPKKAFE

Row | Binder | pKd
41 | VRPGVKESLV [SCN4A, P35499] | below the threshold
42 | RDFDYIADWC [PKN2, Q16513] | below the threshold

molecular target: FRMPD2_1, Q68DX3; assay: holdup assay; set-up: key: below the threshold = too weak to quantify, mostly under pKd 3.1 to 4; conditions: plain residues with an end cap or a label only (N-terminal biotin on a linker: ado-ado)
Sequence (Q68DX3 770-861): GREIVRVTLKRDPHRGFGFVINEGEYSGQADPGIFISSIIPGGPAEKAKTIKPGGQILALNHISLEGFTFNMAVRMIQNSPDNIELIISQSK

Row | Binder | pKd
43 | VRPGVKESLV [SCN4A, P35499] | below the threshold
44 | RDFDYIADWC [PKN2, Q16513] | below the threshold

molecular target: T13, SNTB1, Q13884; assay: holdup assay; set-up: key: below the threshold = too weak to quantify, mostly under pKd 3.1 to 4; conditions: plain residues with an end cap or a label only (N-terminal biotin on a linker: ado-ado)

Row | Binder | pKd
45 | VRPGVKESLV [SCN4A, P35499] | 5.05
46 | RDFDYIADWC [PKN2, Q16513] | below the threshold
